Laboratory results: patent publication US20150246945A1 (JAPANESE FOUNDATION FOR CANCER RESEARCH, published 2015)
Ends that are not written are not given here. * marks the point of attachment. Biotin = O=C1N[C@H]2[C@H](CS[C@H]2CCCCC(=O)*)N1

Tests used:
[1] = biological target: T1, purified EpCAM (extracellular domain with myc and His tags at the C terminus, expressed in HEK-293T cells) (UniProt P16422 24-265, limits assumed); assay: titer of phages bound to EpCAM-immobilized beads (TALON beads; Protein G beads with Vu-1D9), both conditions
T1 construct: extracellular domain; also called epithelial cell adhesion molecule; CD326
T1 sequence (looked up): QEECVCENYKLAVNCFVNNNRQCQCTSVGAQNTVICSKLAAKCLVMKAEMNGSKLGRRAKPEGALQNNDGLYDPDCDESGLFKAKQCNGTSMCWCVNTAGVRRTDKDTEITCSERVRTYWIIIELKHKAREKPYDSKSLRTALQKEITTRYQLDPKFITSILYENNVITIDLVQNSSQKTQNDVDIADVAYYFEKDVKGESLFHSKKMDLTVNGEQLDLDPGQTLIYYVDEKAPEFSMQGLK
Procedure: (§1) Under Condition 1, each phage (in FIG. 1C, rows 1 and 2 represent the Ep133-displaying phage, rows 3 and 4 represent the Ep301-displaying phage, and rows 5 and 6 represent the phage 447 displaying no peptide) was added at a titer of 1×10¹⁰ to 0.4 mg of TALON® beads immobilized 1 μg of EpCAM (FIG. 1C, rows 1, 3, and 5,indicating with plus sign) or the beads alone (FIG. 1C, rows 2, 4, and 6, indicating with minus sign). After washing with TBST five times, the titers of bound phages were measured.
as §1, with “2, 2.4 μg of anti-EpCAM monoclonal antibody (Vu-1D9, Abcam plc.) was immobilized on Protein G beads, and 3 μg of purified EpCAM was immobilized thereon via the antibody. Each” for “1, each”, “the” for “0.4 mg of TALON®”, “immobilized” for “immobilized 1 μg of”, “5, indicating” for “5,indicating with”, “once,” for “five times,”

[2] = biological target: T2, EpCAM, whole protein on cells (HT-29, MCF-7, 293T transfected with full-length EpCAM plasmid pkk196) or on … (UniProt P16422 24-314, limits assumed); assay: pull-down of HT-29 exosomes on peptide-loaded streptavidin beads, Western blot with anti-EpCAM
T2 construct: whole, on cells; Used for both cell-surface EpCAM and EpCAM carried on HT-29 exosomes; the assay field says which; also called EpCAM on HT-29; EpCAM-expressing cells
T2 sequence (looked up): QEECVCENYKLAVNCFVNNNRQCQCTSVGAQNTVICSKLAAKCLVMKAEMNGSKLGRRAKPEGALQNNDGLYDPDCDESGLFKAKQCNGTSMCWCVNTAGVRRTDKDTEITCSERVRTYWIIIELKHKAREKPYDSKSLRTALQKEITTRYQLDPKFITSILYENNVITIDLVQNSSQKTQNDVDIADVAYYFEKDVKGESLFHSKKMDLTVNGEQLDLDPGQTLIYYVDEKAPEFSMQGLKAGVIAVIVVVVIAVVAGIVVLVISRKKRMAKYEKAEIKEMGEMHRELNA
Procedure: 250 μg of streptavidin-magnetic beads (Dynabeads® M-280 streptavidin, VERITAS Corp.) in TBS containing 2% BSA was added to 20 μg of the biotinylated Ep114 peptide and shaken at room temperature for 30 minutes, followed by washing with TBS. Beads reacted without the peptide were used as a control. The anti-Ep114 antibody was added to the beads in TBST and reacted at room temperature for 1 hour. After washing with TBS, the beads were collected. The collected beads were heated at 95° C. for 5 minutes in a SDS sample buffer. After Western-blotting, the anti-Ep114 antibody was detected using HRP-labeled anti-rabbit antibodies.
The binding to exosomes was confirmed using the Western blot system in the similar method as in the preceding paragraph 1. Specifically, 20 μg of the biotinylated Ep114 peptide, the PE183 peptide, the PE184 peptide, or the PE185 peptide was bound to 250 μg of streptavidin-magnetic beads and then reacted with exosomes isolated from HT-29 cells as EpCAM-positive cells, followed by Western blot to detect the exosomes using anti-EpCAM polyclonal antibodies (see the left panel of FIG. 5C).

[3] = biological target: T1, purified EpCAM (extracellular domain …); assay: pull-down of EpCAM on peptide-loaded streptavidin magnetic beads, Western blot
[4] = biological target: T1, purified EpCAM (extracellular domain …); assay: ELISA, biotin peptide on streptavidin plate, purified EpCAM added
Procedure: was immobilized onto an ELISA plate via streptavidin, and purified EpCAM was added thereto in an amount of 0, 10, or 100 ng and reacted. After washing, bound EpCAM was detected using the anti-EpCAM antibody. A biotin-modified peptide PE194 (Ac-[…](biotin)-NH2) of the L3A variant (non-EpCAM-binding variant) was used as a control.

[5] = biological target: T2, EpCAM, whole protein on cells (HT-29, …); assay: staining of HT-29 spheroids with FITC peptide
Procedure: (§2) The HT-29 cells as EpCAM-expressing cells were cultured by spheroid culture method as follows: 4×10⁵ cells are suspended in 3 ml of D-MEM/F-12 medium (Dulbecco's Modified n Eagle Medium:Nutrient Mixture 12, 1:1 mixture) (Gibco/Life Technologies Inc.) supplemented with 20 ng/ml human EGF (Miltenyi Biotec K.K.), 20 ng/ml human […] (Miltenyi Biotec K.K.), B-27 (Gibco/Life Technologies Inc.), penicillin, and streptomycin and inoculated to EZ-Sphere®, a Petri dish of 3.5 cm in diameter coated with MPC polymer. After static culture for 72 hours, the cells were collected while the medium was suspended by pipetting. The cells were stained with the FITC-modified peptide and observed under a fluorescence microscope. The staining was carried out by adding 4 μM peptide into a McCoy's 5A medium and standing still at room temperature for 30 minutes.
Next, the results of staining using the L3A variant peptide as a control are shown.

[6] = biological target: T2, EpCAM, whole protein on cells (HT-29, …); assay: staining of HT-29 spheroids with FITC peptide, fluorescence microscopy
Procedure: as §2
When these control peptides were used at a concentration of 4 μM, no EpCAM staining was observed (data not shown).

[7] = biological target: T1, purified EpCAM (extracellular domain …); assay: fluorescence depolarization, FITC-modified peptide
Procedure: Each FITC-modified EpCAM peptide or control peptide was suspended at a concentration of approximately 100 μM in PBS. After centrifugation, the supernatant was collected and diluted 10-fold, and the absorbance was measured at 495 nm From the measurement value, the molar concentration of the peptide was determined using the formula of Beer-Lambert of the following expression 1: […]
EpCAM is diluted with PBS into several concentrations from 0 until reaching equilibrium (40 nM for the Ep133 peptide), and the FITC-modified peptide whose precise concentration has been measured by the aforementioned method is added to the dilutions thus prepared. The sample was left at a temperature for measurement for 30 minutes or longer and subjected to polarization measurement using a spectrofluorometer FP-6500 (JASCO Corp.) equipped with an automatic polarization measurement unit (JASCO Corp., APH-103). Kd was estimated by curve fitting according to the Hill equation.
The dissociation constants of the EpCAM-binding peptide Ep301 (FIG. 2(D)) disclosed in Patent Literature 2 and Ep301 control (FIG. 2(E)), which was a control peptide derived from Ep301 by the substitution of cysteine at positions 5 and 10 by serine, and a sequence of EpCAM from residue 106 to 119 (FIG. 2(F)) having partial homology to EpCAM-binding peptides were measured similarly.

B1: Ep133-displaying phage (peptide)
chain: EHLHCLGSLCWP
modifications: not fully specified (bridges); cysteine pairing not given here; also: displayed on phage
notes: also called cloned phage displaying Ep133; not shown: fusion and linker not described
B1 was tested, and the “fold ability to bind compared with Ep301-displaying phage” value [1] was no less than 10 times.

B2: PE183 peptide (peptide)
peptide: Ac-KHLQCVRNICWSPPPPPPKK(Biotin)-NH2
modifications: not fully specified (bridges); printed as Ac-KHLQCVRNICWSPPPPPPKK(biotin)-NH2; cysteine pairing not given here
B2: binds [2]; binds [3].

Ac-KHAQCVRNICWSPPPPPPKK(Biotin)-NH2 (cysteine pairing not given here, L3A control of PE183) [biotin-modified peptide PE194 of the L3A variant]: no binding (tested: 100 ng EpCAM) [4].

B3: L3A variant peptide of Ep114, FITC-labeled (peptide)
peptide: KHAQCVRNICWS
modifications: not fully specified (bridges); cysteine pairing not given here; also: FITC-labeled, position not given here
notes: Free labeled peptide used as a control in cell staining; also called L3A control labeled peptide; control peptide
B3: no binding [5].

KHLQSVRNISWS (also: FITC-labeled, position not given here) [Ep114 control peptide in which cysteine at positions 5 and 10 is substituted by serine]: no binding (tested: 0.4 µM; also 4 µM (data not shown)) [6].

B4: Ep133 control (peptide)
peptide: EHLHSLGSLSWP
modifications: also: FITC-modified, position not given here
notes: Ep133 with cysteine at positions 5 and 10 substituted by serine
B4: no binding (tested: 0.4 µM; also 4 µM (data not shown)) [6]; no binding [7].
